Test results from US8933202B2, “AXL antibodies” (U3 Pharma GmbH, priority 2007, dated 2015).

Legend:
[1] = tested on: NCI/ADR-RES ovarian cancer cells; assay: TUNEL staining, combination with doxorubicin; format: cell-based, human; conditions: 24 h
Source text: As rat anti-Axl antibodies of the invention turned out to interfere with Gas6-mediated anti-apoptosis of serum-starved NIH3T3-Axl cl.7 fibroblasts, the question arose, whether antagonistic anti-Axl antibodies would synergize with chemotherapeutic agents in inducing apoptosis, thereby contributing to overcome drug resistance. In this example, NCI/ADR-RES (originally named MCF-7/AdrR) cells—a ovarian cancer cell line (Liscovitch and Ravid, 2007, Cancer Letters, 245, 350-352) displaying a high level of resistance to several agents including doxorubicin (Fairchild et al., 1987, Cancer Research, 47, 5141-5148; Xu et al., 2002, The Journal of Pharmacology and Experimental Therapeutics, 302, 963-971)—were incubated with the antagonistic anti-Axl antibody 11B7 and/or doxorubicin, and apoptosis rates were determined by TUNEL staining. In brief, 3×10^4 NCI/ADR-RES cells in normal growth medium were seeded per well of an 8-chamber culture slide (BD Falcon, cat#354118) which were pre-incubated with the same medium for 1 h at 37° C. The next morning, normal growth medium was removed and cells were washed with and cultured in serum-reduced (0.5% FCS) medium. In the evening, isotypic control antibody 1D5 or the antagonistic anti-Axl antibody 11B7 were added at final concentrations of 10 μg/ml each. In the morning of day 3, doxorubicin at final concentrations of 100 μM, 150 μM, or 200 μM was added, and cells were incubated at 37° C. After 24 h, cells were rinsed once with PBS, fixed with 4% formaldehyde in PBS (pH 7.5) for 20 min at room temperature, air-dried for 5 min, and stored at −20° C. Using the commercially available Fluorescein-FragEL™ kit (Oncogene, cat#QIA39, presently being distributed through Merck-Calbiochem), TUNEL staining was performed according to the supplier's manual instructions (chapter ‘Fluorescein-FragEL™ of cell preparations fixed on slides’, page 10). Applying fluorescence microscopy, cells were analyzed and photos were taken.

AXL = biological target: T1, AXL (Homo sapiens, UniProt P30530); assay: AXL receptor tyrosine phosphorylation ELISA; format: cell-based; parameters: expressed in transfected cells; host or cells: NIH3T3-AXL cl.7 (pLXSN-hAXL) and NCI-H292 lung cancer cells (endogenous AXL); conditions: 10 μg/ml antibody, 400 ng/ml Gas6; NIH3T3-AXL cl.7 fibroblasts and NCI-H292 lung cancer cells
T1 sequence (P30530 26-894): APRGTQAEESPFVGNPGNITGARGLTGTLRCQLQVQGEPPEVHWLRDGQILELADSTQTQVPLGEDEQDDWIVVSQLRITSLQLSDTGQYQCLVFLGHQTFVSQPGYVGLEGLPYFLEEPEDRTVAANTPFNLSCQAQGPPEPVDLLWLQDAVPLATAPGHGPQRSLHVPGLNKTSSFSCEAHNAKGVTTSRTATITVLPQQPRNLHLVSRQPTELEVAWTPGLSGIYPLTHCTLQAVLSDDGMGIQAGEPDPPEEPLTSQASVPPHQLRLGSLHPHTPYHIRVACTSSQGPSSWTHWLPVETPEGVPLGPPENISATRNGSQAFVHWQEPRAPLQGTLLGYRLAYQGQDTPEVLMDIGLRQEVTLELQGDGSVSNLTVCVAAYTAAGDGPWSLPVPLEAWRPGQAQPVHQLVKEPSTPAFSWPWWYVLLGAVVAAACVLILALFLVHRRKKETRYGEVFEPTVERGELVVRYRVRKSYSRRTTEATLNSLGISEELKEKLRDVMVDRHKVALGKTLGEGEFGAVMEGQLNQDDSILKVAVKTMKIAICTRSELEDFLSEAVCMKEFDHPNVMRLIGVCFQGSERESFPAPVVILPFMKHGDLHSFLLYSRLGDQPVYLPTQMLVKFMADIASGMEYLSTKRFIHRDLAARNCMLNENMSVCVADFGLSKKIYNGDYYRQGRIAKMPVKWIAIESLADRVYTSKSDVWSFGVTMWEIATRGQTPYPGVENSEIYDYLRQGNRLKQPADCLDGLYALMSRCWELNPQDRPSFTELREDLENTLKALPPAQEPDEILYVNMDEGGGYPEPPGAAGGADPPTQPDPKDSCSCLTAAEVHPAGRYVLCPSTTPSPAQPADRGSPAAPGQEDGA
Procedure: ELISA experiments were performed in order to investigate whether the rat anti-AXL antibodies of the invention are able to block ligand Gash-mediated activation of AXL. Gas6-mediated AXL activation was detected by increased receptor tyrosine phosphorylation. In brief, on day 1, 3×10^4 cells per well were seeded in normal growth medium in flat-bottom 96 well plates. The next day, growth medium was replaced by serum-free medium to starve cells over night for 24 h. Also over night, black Maxi-Sorp 96 well plates (Nunc) were coated with mouse anti-phospho-tyrosine antibody 4G10 at 2 μg/ml PBS and 4° C. On day 3, the 4G10 antibody solution was removed and Maxi-Sorp wells were blocked with PBS, 0.5% BSA for at lest 4 h at room temperature. […] Medium was then flicked out and cells were lysed in lysis buffer (50 mM HEPES, pH 7.5, 150 mM NaCl, 1 mM EDTA, 10% glycerine, and 1% Triton X-100) supplemented with phosphatase and protease inhibitors (10 mM Na4P2O7, 1 mM phenylmethylsulfonyl fluoride, 1 mM orthovanadate, 1 mM NaF, and 0.5% aprotinin) for 30 min on ice. […] Using a Victor plate reader (Perkin Elmer), the fluorescence of each well was collected at an excitation wavelength of 430 nm and an emission wavelength of 580 nm.

B1: 11B7: antagonistic rat anti-AXL monoclonal antibody, rat IgG1 (antibody, V domains shown)
VL: DIQMTQAPSSLPASLGDRVTITCRASQDIGNYLRWFQQKPGKSPRLMISGATNLAAGVPSRFSGSRSGSDYSLTISSLESEDMADYYCLQSKESPWTFGGGTKLELK
VH: EVQLQESGPGLVKPSQSLSLTCSVTGYSITSNYWGWIRKFPGDKMEWMGYITYSGSTSYNPSLKSRISITRDTSKNQFFLQLNSVTSEDTATYYCAITTFYYWGQGVMVTVSS
- apoptosis (TUNEL staining), co-incubation with 100 μM doxorubicin ([1]; 10 μg/ml 11B7 + 100 μM doxorubicin): No TUNEL staining, and hence no apoptosis
- apoptosis (TUNEL staining), co-incubation with 150 μM doxorubicin ([1]; 10 μg/ml 11B7 + 150 μM doxorubicin): substantial induction of apoptosis
- apoptosis (TUNEL staining), co-incubation with 200 μM doxorubicin ([1]; 10 μg/ml 11B7 + 200 μM doxorubicin, compared to control IgG antibody): significantly increased apoptosis rates
- ligand-mediated AXL activation (phosphorylation) (AXL): able to block or reduce ligand-mediated AXL activation
